B1: piperine synthase (PipBAHD2) (Piper nigrum) (protein)
chain: MAPSSQLEFNVVRKQPELLPPAEPTPFEWKELSDIDDQDGLRLHISGFFIYPPSTMSNVGRDNVARDIRLGLSKAMVFYYPLAGRIREGPNRKLSVECTGEGIMYCEADADVRLEQFGDIGALSMPFPFMDKVMFETVDDGILGTPLMYFQSTRFICGGIVIAGCYNHAIADGLGFYMFMAAAAQLARGAASPTPLPVWQRERLLSRVPPRVTFIHHEYIHDTPKTETANPLDNEPWPLHSIFFTRVDVAALRAQLPGHLRKSATSFEIISACLWRCRTAALRFAPDELSRLIIAVNARTKFGPPLPQGYYGNSIMLPMVVSEAGKLVLSGLGYAVELVIEAKGKVTEEYVKSVADYLVLNGRPHYVVTNTYLVSDLRQLVEMSKFDWGWGKPAYVGPADVGENAISFLATLKNGEEEGVVVPIRLPESAVGRFKSEVSKMVSFGCLEDVKPNRDGYLSRM
notes: full-length cDNA from immature fruits, N-terminal His10 tag (pET-16b), E. coli LEMO21, IMAC
B2: piperamide synthase (PipBAHD1) (Piper nigrum) (protein)
chain: MASSQLEFNVERKQPELLGPAEPTPYELKELSDIDDQDGVRLFLTAIFIYPPPTKTSMPTRKTDPASDIRRGLSKAMVYYYPFAGRIREGPNRKLSVDCTGEGIVFCEADADIRLDGLGDVEVLRPPYPFIDKMTLGEGSAILGAPLVYVQVTRFACGGFIITGRFNHVMADAPGFTMFMKAAADLARGATVPMPLPVWERERYRSRVPPRVTFAHHEYMHVDDPPPRPTSEPWSLHSAFFTKADVATLRAQLPADLRKAATSFDIITACMWRCRVSALQYGPDEVVRLIVAVNSRTKFDPPLTGYYGNGLMLPAAVTEAGKLVGSDLGYAVELVREAKGKVTEEYVRSAADFLVLNGRVHFVVSNTFLVSDLRRLIDLANMDWGWGKAVSGGPVDVGENVISFLATSKNSAGEEGAVVPFCLPDSALGRFTSEVKKLVCFRPLENAAASNPDHGYMSRM
notes: as for B1

How the values were obtained:
Format in all cases: biochemical, Piper nigrum
[1] = substrate: C1CCNCC1; assay: HPLC-UV/Vis and LC-MS of piperine (plus isomers) formation; settings: co-substrate piperoyl-CoA, pH 8.0, 30 mM Tris/HCl, 1 mM DTT
Excerpt: (§1) HPLC-UV/Vis and LC-MS of piperine (plus isomers) formation on piperine synthase (PipBAHD2)

[2] = substrate: CC(C)(COP(=O)(O)OP(=O)(O)OC[C@H]1O[C@@H](n2cnc3c(N)ncnc32)[C@H](O)[C@@H]1OP(=O)(O)O)[C@@H](O)C(=O)NCCC(=O)NCCSC(=O)/C=C/C=C/c1ccc2c(c1)OCO2; assay: as above; settings: co-substrate piperidine, pH 8.0, 30 mM Tris/HCl, 1 mM DTT
Excerpt: as §1

[3] = substrate: C1CCNCC1; assay: HPLC-UV/Vis and LC-MS of piperine isomer formation; settings: co-substrate piperoyl-CoA, pH 8.0, 30 mM Tris/HCl, 1 mM DTT
Excerpt: (§2) HPLC-UV/Vis and LC-MS of piperine isomer formation on piperamide synthase (PipBAHD1)

[4] = substrate: CC(C)(COP(=O)(O)OP(=O)(O)OC[C@H]1O[C@@H](n2cnc3c(N)ncnc32)[C@H](O)[C@@H]1OP(=O)(O)O)[C@@H](O)C(=O)NCCC(=O)NCCSC(=O)/C=C/C=C/c1ccc2c(c1)OCO2; assay: HPLC-UV/Vis and LC-MS of piperine isomer formation; settings: co-substrate piperidine, pH 8.0, 30 mM Tris/HCl, 1 mM DTT
Excerpt: as §2

| Protein | Km [1] | Km [2] | kcat [2] | kcat/Km [2] | Km [3] | kcat [3] | kcat/Km [3] | Km [4] | kcat [4] | kcat/Km [4] |
| --- | --- | --- | --- | --- | --- | --- | --- | --- | --- | --- |
| B1 | 7.6 ± 0.5 mM | 0.342 ± 0.060 mM | 1.01 ± 0.12 s⁻¹ | 2950 M⁻¹ s⁻¹ | – | – | – | – | – | – |
| B2 | – | – | – | – | 8.69 ± 3.6 mM | 0.27 ± 0.02 s⁻¹ | 31.1 M⁻¹ s⁻¹ | 0.196 ± 0.009 mM | 0.35 ± 0.01 s⁻¹ | 1790 M⁻¹ s⁻¹ |

Source: paper PMC8032705, “Identification and characterization of piperine synthase from black pepper, Piper nigrum L” (Communications Biology, 2021)
